# Measured values from patent US20130288305A1.
# Columns and labels:
# Test in all cases: cell-based or functional assay
# [1] = target: FGFR2-IIIb N550K expressed on FDCP-1 cells (human), P21802
# [2] = target: FGFR2-IIIb S252W expressed on FDCP-1 cells (human), P21802
# [3] = target: wild type FGFR2-IIIb expressed on FDCP-1 cells (human), P21802
binder,measurement,setting,value
antibody 4B9 (antibody) heavy: EVQLQQSGTVLARPGASVKMSCKTSGYTFTSYWMHWVKQRPGQGLEWIGAIYPGNSDTDYSQKFKGKATLTAVTSATTAYMELSSLTNEDSAVYYCSKFDYWGQGTTLTVSSAKTTPPSVYPLAPGSAAQTNSMVTLGCLVKGYFPEPVTVTWNSGSLSSGVHTFPAVLQSDLYTLSSSVTVPSSTWPSQTVTCNVAHPASSTKVDKKIVPRDCGCKPCICTVPEVSSVFIFPPKPKDVLTITLTPKVTCVVVDISKDDPEVQFSWFVDDVEVHTAQTQPREEQFNSTFRSVSELPIMHQDWLNGKEFKCRVNSAAFPAPIEKTISKTKGRPKAPQVYTIPPPKEQMAKDKVSLTCMITDFFPEDITVEWQWNGQPAENYKNTQPIMDTDGSYFVYSKLNVQKSNWEAGNTFTCSVLHEGLHNHHTEKSLSHSPGK light: QIVLTQSPALMSASPGEKVTMTCSASSSVNYMYWYQQKPRSSPKPWIYLTSNLASGVPARFSGRGSGTSYSLTISSMEAEDAATYYCQQWSSNPYTFGGGTKLEIKRADAAPTVSIFPPSSEQLTSGGASVVCFLNNFYPRDINVKWKIDGSERQNGVLNSWTDQDSKDSTYSMSSTLTLTKDEYERHNSYTCEATHKTSTSPIVKSFNRNEC,IC50 of inhibition of cell proliferation (MTT assay),[1],8.1 nM
same,IC50 of inhibition of cell proliferation (MTT assay),[2],3 nM
same,IC50 of inhibition of cell proliferation (MTT assay),[3],0.3 nM
